# Results: patent US20050171026
# Target: Recombinant His-tagged SF2/ASF (rSF2/ASF) (UniProt Q07955)
# Sequence (Q07955 whole entry): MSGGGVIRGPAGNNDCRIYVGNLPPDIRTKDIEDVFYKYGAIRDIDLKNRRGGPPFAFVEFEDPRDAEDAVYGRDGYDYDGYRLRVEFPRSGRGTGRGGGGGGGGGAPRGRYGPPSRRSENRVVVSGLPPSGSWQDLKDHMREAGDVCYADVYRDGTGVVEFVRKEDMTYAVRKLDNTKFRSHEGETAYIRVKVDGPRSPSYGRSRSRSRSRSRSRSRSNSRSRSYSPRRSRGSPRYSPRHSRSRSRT
# Sequence of Glutathione S-transferase-tagged mClk1/Sty (recombinant Clk1/Sty) (chain, as listed by the source): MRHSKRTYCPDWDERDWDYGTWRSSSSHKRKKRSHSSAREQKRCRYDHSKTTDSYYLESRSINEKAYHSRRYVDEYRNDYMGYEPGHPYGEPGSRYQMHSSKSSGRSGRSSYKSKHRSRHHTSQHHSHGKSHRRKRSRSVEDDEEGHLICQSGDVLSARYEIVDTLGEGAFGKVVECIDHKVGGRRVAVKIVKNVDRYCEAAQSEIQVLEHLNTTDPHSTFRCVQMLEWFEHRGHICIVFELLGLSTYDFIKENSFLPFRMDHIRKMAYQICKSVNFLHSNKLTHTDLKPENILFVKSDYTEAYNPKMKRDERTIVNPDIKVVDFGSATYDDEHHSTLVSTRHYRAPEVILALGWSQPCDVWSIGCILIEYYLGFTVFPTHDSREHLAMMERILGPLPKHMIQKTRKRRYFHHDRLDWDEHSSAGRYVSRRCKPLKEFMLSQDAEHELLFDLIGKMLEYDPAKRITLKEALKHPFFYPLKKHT
substance,measurement,value
Glutathione S-transferase-tagged mClk1/Sty (recombinant Clk1/Sty),electrophoretic mobility of rSF2/ASF on SDS-PAGE / Western blot with AK103 (phosphorylation state),"rSF2/ASF exhibited reduced electrophoretic mobility in the presence of Clk 1/Sty (FIG. 2A, lane 2) compared with the rSF2/ASF alone"
